From US20220048967A1 (published 2022) come the findings set out here.

Numbered stars: 1 amine (or outer) side, 2 acyl side, 3 side chain; on linkers, the order of the positions; unused ones are H or OH. Square brackets hold non-standard residues; d marks the D form. Side chains are listed from the residue outwards. Ends that are not written are not given here. * marks the point of attachment. C20 diacid = O=C(O)CCCCCCCCCCCCCCCCCCC(=O)*; αMePhe(2-F) = C[C@](N)(Cc1ccccc1F)C(=O)O; γGlu = O=C(O)[C@H](CCC(=O)[*:2])N[*:1]; Desaminohistidyl = O=C(CCc1c[nH]cn1)*; αMeF = C[C@](N)(Cc1ccccc1)C(=O)O; AEEA = NCCOCCOCC(=O)O; Aib = CC(C)(N)C(=O)O

For one assay, the target named is T1, human GIP receptor (human, UniProt P48546 22-466).
T1 sequence (looked up): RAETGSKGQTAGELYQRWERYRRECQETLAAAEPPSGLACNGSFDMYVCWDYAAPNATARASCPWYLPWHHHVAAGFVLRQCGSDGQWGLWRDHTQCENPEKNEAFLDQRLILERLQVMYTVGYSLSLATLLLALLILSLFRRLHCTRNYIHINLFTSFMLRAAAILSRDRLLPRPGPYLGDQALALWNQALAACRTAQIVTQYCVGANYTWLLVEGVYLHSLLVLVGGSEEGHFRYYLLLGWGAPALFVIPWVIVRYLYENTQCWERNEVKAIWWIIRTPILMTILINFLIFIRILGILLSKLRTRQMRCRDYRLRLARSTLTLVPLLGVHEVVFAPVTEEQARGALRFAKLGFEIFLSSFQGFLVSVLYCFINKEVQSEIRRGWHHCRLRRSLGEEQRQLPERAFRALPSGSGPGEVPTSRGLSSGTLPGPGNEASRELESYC
Put plainly: cell-based or functional assay.

The next assay deals with human GLP-1 receptor (human, UniProt P43220 24-463). Put plainly: cell-based or functional assay.

B1: Example 101 (peptide)
peptide: Y[Aib]EGT[αMePhe(2-F)]TSDYSI[Aib]LDEK([AEEA-AEEA-γGlu-C20 diacid])AQ[Aib]AFIEYLIEGG-NH2
modifications: N-terminus assumed
SMILES: CC[C@H](C)[C@H](NC(=O)[C@H](CC(C)C)NC(=O)[C@H](Cc1ccc(O)cc1)NC(=O)[C@H](CCC(=O)O)NC(=O)[C@@H](NC(=O)[C@H](Cc1ccccc1)NC(=O)[C@H](C)NC(=O)C(C)(C)NC(=O)[C@H](CCC(N)=O)NC(=O)[C@H](C)NC(=O)[C@H](CCCCNC(=O)COCCOCCNC(=O)COCCOCCNC(=O)CC[C@H](NC(=O)CCCCCCCCCCCCCCCCCCC(=O)O)C(=O)O)NC(=O)[C@H](CCC(=O)O)NC(=O)[C@H](CC(=O)O)NC(=O)[C@H](CC(C)C)NC(=O)C(C)(C)NC(=O)[C@@H](NC(=O)[C@H](CO)NC(=O)[C@H](Cc1ccc(O)cc1)NC(=O)[C@H](CC(=O)O)NC(=O)[C@H](CO)NC(=O)[C@@H](NC(=O)[C@](C)(Cc1ccccc1F)NC(=O)[C@@H](NC(=O)CNC(=O)[C@H](CCC(=O)O)NC(=O)C(C)(C)NC(=O)[C@@H](N)Cc1ccc(O)cc1)[C@@H](C)O)[C@@H](C)O)[C@@H](C)CC)[C@@H](C)CC)C(=O)N[C@@H](CCC(=O)O)C(=O)NCC(=O)NCC(N)=O
For the molecule B1, in the assay with human GIP receptor, the “hGIPR cAMP EC50 ratio” value was found to be 2.07 and the “hGIPR cAMP Rel EC50” value is 0.0704 nM. In the assay with human GLP-1 receptor, the “hGLP1R cAMP EC50 ratio” value was found to be 1.06 and the “hGLP1R cAMP Rel EC50” value is 0.0579 nM.

B2: Example 95 (peptide)
peptide: YXEGTXTSDYSILLDKIAQXAFIEYLIKGG
modifications: Aib2; αMeF6; Aib20; K28((2-[2-(2-Amino-ethoxy)-ethoxy]-acetyl)2-(γ-Glu)-CO-(CH2)18-CO2H); C-terminal NH2
Consider B2, for which, in the assay with human GIP receptor, the “hGIPR cAMP EC50 ratio” value amounted to 0.145 and the “hGIPR cAMP Rel EC50” value came to 1.17 nM. In addition, in the assay with human GLP-1 receptor, the “hGLP1R cAMP EC50 ratio” value was 0.0576 and the “hGLP1R cAMP Rel EC50” value was determined as 1.01 nM.

B3: Example 93 (peptide)
peptide: Y[Aib]EGT[αMeF]TSDYSILK([AEEA-AEEA-γGlu-C20 diacid])DKIAQ[Aib]AFIEYLIEGG-NH2
modifications: N-terminus assumed
SMILES: CC[C@H](C)[C@H](NC(=O)[C@H](CCCCN)NC(=O)[C@H](CC(=O)O)NC(=O)[C@H](CCCCNC(=O)COCCOCCNC(=O)COCCOCCNC(=O)CC[C@H](NC(=O)CCCCCCCCCCCCCCCCCCC(=O)O)C(=O)O)NC(=O)[C@H](CC(C)C)NC(=O)[C@@H](NC(=O)[C@H](CO)NC(=O)[C@H](Cc1ccc(O)cc1)NC(=O)[C@H](CC(=O)O)NC(=O)[C@H](CO)NC(=O)[C@@H](NC(=O)[C@](C)(Cc1ccccc1)NC(=O)[C@@H](NC(=O)CNC(=O)[C@H](CCC(=O)O)NC(=O)C(C)(C)NC(=O)[C@@H](N)Cc1ccc(O)cc1)[C@@H](C)O)[C@@H](C)O)[C@@H](C)CC)C(=O)N[C@@H](C)C(=O)N[C@@H](CCC(N)=O)C(=O)NC(C)(C)C(=O)N[C@@H](C)C(=O)N[C@@H](Cc1ccccc1)C(=O)N[C@H](C(=O)N[C@@H](CCC(=O)O)C(=O)N[C@@H](Cc1ccc(O)cc1)C(=O)N[C@@H](CC(C)C)C(=O)N[C@H](C(=O)N[C@@H](CCC(=O)O)C(=O)NCC(=O)NCC(N)=O)[C@@H](C)CC)[C@@H](C)CC
Take B3: in the assay with human GIP receptor, the “hGIPR cAMP EC50 ratio” value amounted to 0.956 and the “hGIPR cAMP Rel EC50” value is 0.185 nM. In the assay with human GLP-1 receptor, the “hGLP1R cAMP EC50 ratio” value is 0.498 and the “hGLP1R cAMP Rel EC50” value stood at 0.115 nM.

B4: Example 102 (peptide)
peptide: Y[Aib]EGT[αMeF]TSDYSI[Aib]LDEK([AEEA-AEEA-γGlu-C20 diacid])AQ[Aib]AFIEYLIEGG-NH2
modifications: N-terminus assumed
SMILES: CC[C@H](C)[C@H](NC(=O)[C@H](CC(C)C)NC(=O)[C@H](Cc1ccc(O)cc1)NC(=O)[C@H](CCC(=O)O)NC(=O)[C@@H](NC(=O)[C@H](Cc1ccccc1)NC(=O)[C@H](C)NC(=O)C(C)(C)NC(=O)[C@H](CCC(N)=O)NC(=O)[C@H](C)NC(=O)[C@H](CCCCNC(=O)COCCOCCNC(=O)COCCOCCNC(=O)CC[C@H](NC(=O)CCCCCCCCCCCCCCCCCCC(=O)O)C(=O)O)NC(=O)[C@H](CCC(=O)O)NC(=O)[C@H](CC(=O)O)NC(=O)[C@H](CC(C)C)NC(=O)C(C)(C)NC(=O)[C@@H](NC(=O)[C@H](CO)NC(=O)[C@H](Cc1ccc(O)cc1)NC(=O)[C@H](CC(=O)O)NC(=O)[C@H](CO)NC(=O)[C@@H](NC(=O)[C@](C)(Cc1ccccc1)NC(=O)[C@@H](NC(=O)CNC(=O)[C@H](CCC(=O)O)NC(=O)C(C)(C)NC(=O)[C@@H](N)Cc1ccc(O)cc1)[C@@H](C)O)[C@@H](C)O)[C@@H](C)CC)[C@@H](C)CC)C(=O)N[C@@H](CCC(=O)O)C(=O)NCC(=O)NCC(N)=O
On to B4, for which, in the assay with human GIP receptor, the “hGIPR cAMP EC50 ratio” value was found to be 0.983 and the “hGIPR cAMP Rel EC50” value was found to be 0.178 nM. Further, in the assay with human GLP-1 receptor, the “hGLP1R cAMP EC50 ratio” value came to 0.913 and the “hGLP1R cAMP Rel EC50” value worked out at 0.0628 nM.

B5: Example 106 (peptide)
peptide: [Desaminohistidyl][Aib]EGTFTSDYSILLDKK([AEEA-AEEA-γGlu-C20 diacid])AQ[Aib]AFIEYLIEGGPSSGAPPPS-NH2
Consider B5, for which, in the assay with human GIP receptor, the “hGIPR cAMP EC50 ratio” value stood at 0.0302 and the “hGIPR cAMP Rel EC50” value was found to be 6.54 nM. In the assay with human GLP-1 receptor, the “hGLP1R cAMP EC50 ratio” value stood at 1.42 and the “hGLP1R cAMP Rel EC50” value worked out at 0.0413 nM.

B6: Example 6 (peptide)
peptide: Y[Aib]EGTFTSDYSILLDKK([AEEA-AEEA-γGlu-C20 diacid])AQ[Aib]AFIEYLLEGGPSSGAPPPS-NH2
modifications: N-terminus assumed
SMILES: CC[C@H](C)[C@H](NC(=O)[C@H](Cc1ccccc1)NC(=O)[C@H](C)NC(=O)C(C)(C)NC(=O)[C@H](CCC(N)=O)NC(=O)[C@H](C)NC(=O)[C@H](CCCCNC(=O)COCCOCCNC(=O)COCCOCCNC(=O)CC[C@H](NC(=O)CCCCCCCCCCCCCCCCCCC(=O)O)C(=O)O)NC(=O)[C@H](CCCCN)NC(=O)[C@H](CC(=O)O)NC(=O)[C@H](CC(C)C)NC(=O)[C@H](CC(C)C)NC(=O)[C@@H](NC(=O)[C@H](CO)NC(=O)[C@H](Cc1ccc(O)cc1)NC(=O)[C@H](CC(=O)O)NC(=O)[C@H](CO)NC(=O)[C@@H](NC(=O)[C@H](Cc1ccccc1)NC(=O)[C@@H](NC(=O)CNC(=O)[C@H](CCC(=O)O)NC(=O)C(C)(C)NC(=O)[C@@H](N)Cc1ccc(O)cc1)[C@@H](C)O)[C@@H](C)O)[C@@H](C)CC)C(=O)N[C@@H](CCC(=O)O)C(=O)N[C@@H](Cc1ccc(O)cc1)C(=O)N[C@@H](CC(C)C)C(=O)N[C@@H](CC(C)C)C(=O)N[C@@H](CCC(=O)O)C(=O)NCC(=O)NCC(=O)N1CCC[C@H]1C(=O)N[C@@H](CO)C(=O)N[C@@H](CO)C(=O)NCC(=O)N[C@@H](C)C(=O)N1CCC[C@H]1C(=O)N1CCC[C@H]1C(=O)N1CCC[C@H]1C(=O)N[C@@H](CO)C(N)=O
As for B6, in the assay with human GIP receptor, the “hGIPR cAMP EC50 ratio” value amounted to 2.09 and the “hGIPR cAMP Rel EC50” value worked out at 0.0899 nM. In addition, in the assay with human GLP-1 receptor, the “hGLP1R cAMP EC50 ratio” value was 0.185 and the “hGLP1R cAMP Rel EC50” value stood at 0.374 nM.

B7: Example 94 (peptide)
peptide: YXEGTXTSDYSILLDKIAQXKFIEYLIEGG
modifications: Aib2; αMeF6; Aib20; K21((2-[2-(2-Amino-ethoxy)-ethoxy]-acetyl)2-(γ-Glu)-CO-(CH2)18-CO2H); C-terminal NH2
For the molecule B7, in the assay with human GIP receptor, the “hGIPR cAMP EC50 ratio” value was 0.434 and the “hGIPR cAMP Rel EC50” value is 0.425 nM. Also, in the assay with human GLP-1 receptor, the “hGLP1R cAMP EC50 ratio” value was determined as 0.196 and the “hGLP1R cAMP Rel EC50” value turned out to be 0.338 nM.

B8: Example 105 (peptide)
peptide: [Desaminohistidyl][Aib]EGTFTSDYSILLDKK([AEEA-AEEA-γGlu-C20 diacid])AQ[Aib]AFIEYLIEGGPSSGAPPPS-NH2
modifications: also: ψ[NHCO] bond between DesHis1 and Aib2
Take B8: in the assay with human GIP receptor, the “hGIPR cAMP EC50 ratio” value turned out to be 0.101 and the “hGIPR cAMP Rel EC50” value came to 1.85 nM. In the assay with human GLP-1 receptor, the “hGLP1R cAMP EC50 ratio” value was determined as 1.51 and the “hGLP1R cAMP Rel EC50” value was 0.0401 nM.

B9: Example 98 (peptide)
peptide: YXEGTXTSDYSILLDKKAQXAFIEYLIEGG
modifications: Aib2; αMeF6; K17((2-[2-(2-Amino-ethoxy)-ethoxy]-acetyl)2-(γ-Glu)-CO-(CH2)18-CO2H); Aib20; C-terminal NH2
As for B9, in the assay with human GIP receptor, the “hGIPR cAMP EC50 ratio” value was 2.43 and the “hGIPR cAMP Rel EC50” value was 0.0718 nM. Also, in the assay with human GLP-1 receptor, the “hGLP1R cAMP EC50 ratio” value turned out to be 0.384 and the “hGLP1R cAMP Rel EC50” value is 0.157 nM.

B10: Example 107 (peptide)
peptide: XXEGTFTSDYSILLDKKAQXAFIEYLIEGGPSSGAPPPS
modifications: DesTyr1; Aib2; K17((2-[2-(2-Amino-ethoxy)-ethoxy]-acetyl)2-(γ-Glu)-CO-(CH2)18-CO2H); Aib20; C-terminal NH2
Regarding B10, in the assay with human GIP receptor, the “hGIPR cAMP EC50 ratio” value came to 0.747 and the “hGIPR cAMP Rel EC50” value stood at 0.241 nM. Further, in the assay with human GLP-1 receptor, the “hGLP1R cAMP EC50 ratio” value is 1.1 and the “hGLP1R cAMP Rel EC50” value is 0.0539 nM.

B11: Example 110 (peptide)
peptide: YXEGTFTSDYSILLDKKAQXAFIEYLIEGGPSSGAPPPS
modifications: Aib2; K17((2-[2-(2-Amino-ethoxy)-ethoxy]-acetyl)-(γ-Glu)-(Trx)-CO-(CH2)18-CO2H); Aib20; C-terminal NH2
Turning to B11, the “hGIPR cAMP Rel EC50” value with human GIP receptor was 0.218 nM. The “hGLP1R cAMP Rel EC50” value with human GLP-1 receptor was found to be 0.179 nM.

B12: Example 112 (peptide)
peptide: YXEGTFTSDYSILLDKKAQXAFIEYLIEGGPSSGAPPPS
modifications: Aib2; K17((2-[2-(2-Amino-ethoxy)-ethoxy]-acetyl)-(ϵK)-(γ-Glu)-CO-(CH2)18-CO2H); Aib20; C-terminal NH2
On to B12, for which the “hGIPR cAMP Rel EC50” value in the assay with human GIP receptor turned out to be 0.124 nM. The “hGLP1R cAMP Rel EC50” value with human GLP-1 receptor stood at 0.16 nM.
